Test results taken from patent US20230295313A1 (published 2023).

What was measured:
[1] = biological target: T1, Soluble Human IL1RAP (sIL1RAP) (human, UniProt Q9NPH3 21-367); assay: SPR, antibody captured via Protein A on CM5 chip, 25° C., 1:1 fit, average of 3 runs
[2] = biological target: T2, Human IL1RAP ECD (human, UniProt Q9NPH3 21-367); assay: as above
T2 construct: Analyte in the GSK3903371A SPR study; also called human IL1RAP extracellular domain (ECD); recombinant human IL1RAP ECD
T2 sequence: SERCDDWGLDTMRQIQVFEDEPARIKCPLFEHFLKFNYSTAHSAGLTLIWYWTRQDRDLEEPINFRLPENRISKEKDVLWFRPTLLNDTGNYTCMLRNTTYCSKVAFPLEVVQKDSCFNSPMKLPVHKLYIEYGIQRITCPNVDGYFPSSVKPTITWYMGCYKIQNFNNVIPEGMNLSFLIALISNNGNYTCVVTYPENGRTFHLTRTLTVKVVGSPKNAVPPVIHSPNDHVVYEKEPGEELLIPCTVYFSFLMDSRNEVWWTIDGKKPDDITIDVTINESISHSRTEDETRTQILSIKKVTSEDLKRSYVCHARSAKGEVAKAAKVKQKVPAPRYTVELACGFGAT

[3] = biological target: T3, Cyno IL1RAP ECD (cynomolgus monkey, UniProt A0A2K5X5J5 21-367); assay: as above
T3 construct: extracellular domain; Analyte in the GSK3903371A SPR study; also called cynomolgus monkey IL1RAP ECD
T3 sequence: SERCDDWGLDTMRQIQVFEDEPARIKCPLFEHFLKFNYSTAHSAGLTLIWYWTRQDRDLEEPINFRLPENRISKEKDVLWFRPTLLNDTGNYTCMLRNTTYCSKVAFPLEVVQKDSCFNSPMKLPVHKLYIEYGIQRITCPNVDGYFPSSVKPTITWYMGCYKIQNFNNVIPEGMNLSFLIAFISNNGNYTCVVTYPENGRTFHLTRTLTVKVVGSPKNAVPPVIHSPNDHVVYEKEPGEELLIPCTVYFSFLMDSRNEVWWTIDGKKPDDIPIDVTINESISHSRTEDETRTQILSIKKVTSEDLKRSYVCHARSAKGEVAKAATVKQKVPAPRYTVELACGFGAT

[4] = biological target: T1, Soluble Human IL1RAP (sIL1RAP); assay: SPR, antibody captured via Protein A on CM5 chip, 37° C., 1:1 fit, average of 2 runs
[5] = biological target: T2, Human IL1RAP ECD; assay: as above
[6] = biological target: T3, Cyno IL1RAP ECD; assay: as above
[7] = biological target: T4, human IL1RAP on the cell surface (HEK293/IL1RAP cells; IL1RAP-expressing OCI-AML-1 cells) (human, UniProt Q9NPH3 21-570); assay: cell-based or functional assay
T4 sequence: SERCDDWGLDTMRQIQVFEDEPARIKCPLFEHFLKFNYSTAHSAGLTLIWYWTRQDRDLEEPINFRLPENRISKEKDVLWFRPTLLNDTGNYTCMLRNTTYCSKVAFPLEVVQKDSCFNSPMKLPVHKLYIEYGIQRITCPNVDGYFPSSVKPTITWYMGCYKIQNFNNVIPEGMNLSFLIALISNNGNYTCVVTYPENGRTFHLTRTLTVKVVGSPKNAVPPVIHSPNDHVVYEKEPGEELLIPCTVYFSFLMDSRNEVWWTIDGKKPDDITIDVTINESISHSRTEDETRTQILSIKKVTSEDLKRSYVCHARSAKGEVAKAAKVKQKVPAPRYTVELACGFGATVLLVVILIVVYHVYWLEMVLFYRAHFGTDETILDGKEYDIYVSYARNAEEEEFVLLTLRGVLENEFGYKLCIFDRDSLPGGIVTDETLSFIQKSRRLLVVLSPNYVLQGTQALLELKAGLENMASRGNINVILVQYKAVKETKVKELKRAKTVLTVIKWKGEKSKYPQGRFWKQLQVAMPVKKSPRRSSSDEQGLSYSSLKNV

[8] = biological target: T4, human IL1RAP on the cell surface …; assay: cell-based or functional assay; remark: listed apart in the source
[9] = biological target: T5, cyno IL1RAP (GK017, CynoIL1Racp-ECD-His6) (cyno, UniProt A0A2K5X5J5 21-367); assay: SPR (Biacore T200), mAb captured by anti-human IgG Fc on CM5, ECD-His6 as analyte, 1:1 fit
T5 construct: extracellular domain; also called CynoIL1RAP-ECD-His6 (GK017); cyno IL1RAP-ECD-His6 protein
T5 sequence: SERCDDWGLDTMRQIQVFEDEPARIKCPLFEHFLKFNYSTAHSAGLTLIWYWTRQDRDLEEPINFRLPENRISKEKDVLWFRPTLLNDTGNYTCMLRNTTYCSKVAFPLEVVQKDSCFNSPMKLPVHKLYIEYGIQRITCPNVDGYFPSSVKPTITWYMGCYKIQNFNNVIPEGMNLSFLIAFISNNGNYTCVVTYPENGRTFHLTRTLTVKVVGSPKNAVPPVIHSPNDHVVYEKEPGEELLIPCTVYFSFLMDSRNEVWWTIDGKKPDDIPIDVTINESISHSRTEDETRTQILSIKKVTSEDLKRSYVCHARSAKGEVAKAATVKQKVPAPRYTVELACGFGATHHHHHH

[10] = biological target: T6, human IL1RAP extracellular domain protein (GK002, HuIL1Racp-ECD-His6) (human, UniProt Q9NPH3 21-367); assay: as above
T6 construct: also called His-tagged human IL-1RAP extracellular domain protein; HuIL1RAP-ECD-His6 (GK002)
T6 sequence: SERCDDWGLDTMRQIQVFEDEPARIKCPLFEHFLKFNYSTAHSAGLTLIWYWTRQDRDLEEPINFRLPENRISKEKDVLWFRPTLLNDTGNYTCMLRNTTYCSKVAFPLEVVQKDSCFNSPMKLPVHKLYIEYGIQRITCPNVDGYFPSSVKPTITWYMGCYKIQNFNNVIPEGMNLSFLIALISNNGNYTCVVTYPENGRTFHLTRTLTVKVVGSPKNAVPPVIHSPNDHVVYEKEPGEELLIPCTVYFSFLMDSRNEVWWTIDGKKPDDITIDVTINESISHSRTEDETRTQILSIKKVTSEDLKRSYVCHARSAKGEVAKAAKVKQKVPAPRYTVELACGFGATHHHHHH

[11] = biological target: T6, human IL1RAP extracellular domain …; assay: SPR (Biacore T200), mAb captured by anti-Fc IgG, His-tagged human IL1RAP ECD as analyte

B1: GSK3903371A (antibody, human IgG1, kappa, V domains shown)
VH: EVQLVQSGAEVKKPGSSVKVSCKASGYTFNSYWIHWVRQAPGQGLEWMGYNNPTSGYSEYNQKFTDRVTITADKSTSTAYMELSSLRSEDTAVYYCAREYGDLFAYWGQGTLVTVSS
VL: AIQMTQSPSSLSASVGDRVTITCKASENVGYSVSWFQQKPGKSPKLLIYGASNRYTGVPSRFSGSGSATDFTLTISSLQPEDFATYHCGQIYIYPYTFGGGTKVEIKR
modifications: heavy chain constant region afucosylated (expressed in FUT8-knockout POTELLIGENT CHO cells)
notes: Humanized IgG1 kappa; also called afucosylated anti-IL1RAP mAb GSK3903371A
Question: For B1, which Kd [1] is on record?
Answer: 2.03 nM

Question: What about the koff [1] of the same binder?
Answer: 0.000199 s⁻¹

Question: What about the Kd [2] of the same binder?
Answer: 1.61 nM

Question: What about the koff [2] of the same binder?
Answer: 0.000268 s⁻¹

Question: And the Kd [3]?
Answer: 1.53 nM

Question: And the koff [3]?
Answer: 0.000226 s⁻¹

Question: And the Kd [4]?
Answer: 3.58 nM

Question: And the koff [4]?
Answer: 0.00101 s⁻¹

Question: And the Kd [5]?
Answer: 2.54 nM

Question: And the koff [5]?
Answer: 0.000942 s⁻¹

Question: And the Kd [6]?
Answer: 3.47 nM

Question: And the koff [6]?
Answer: 0.000946 s⁻¹

Question: What about the “ADCC EC50, PBMC effector cells, OCI-AML-1 target cells, experiment 1” value [7] of the same binder?
Answer: 0.0633 nM

Question: What about the “ADCC EC50, PBMC effector cells, OCI-AML-1 target cells, experiment 2” value [7] of the same binder?
Answer: 0.0589 nM

Question: What about the “ADCC EC50, PBMC effector cells, OCI-AML-1 target cells, experiment 3” value [7] of the same binder?
Answer: 0.0705 nM

Question: And the “ADCC EC50, geometric mean (n=3), OCI-AML-1 target cells” value [7]?
Answer: 0.0641 nM

Question: What about the “CDC EC50, HEK293/IL1RAP target cells, experiment 1” value [8] of the same binder?
Answer: 6.16 nM

Question: What about the “CDC EC50, HEK293/IL1RAP target cells, experiment 2” value [8] of the same binder?
Answer: 5.9 nM

B2: mAb067-12 (humanized) (antibody, human IgG1, kappa, V domains shown)
VH: EVQLVQSGAEVKKPGSSVKVSCKASGYTFNSYWIHWVRQAPGQGLEWMGYNNPTSGYSEYNQKFTDRVTITADKSTSTAYMELSSLRSEDTAVYYCAREYGDLFAYWGQGTLVTVSS
VL: AIQMTQSPSSLSASVGDRVTITCKASENVGYSVSWFQQKPGKSPKLLIYGASNRYTGVPSRFSGSGSATDFTLTISSLQPEDFATYHCGQIYIYPYTFGGGTKVEIKR
notes: Fucosylated humanized IgG1; same chains as GSK3903371A; also called HumAb67-12; HumAb067-12
Question: What does the source list for B2?
Answer: Kd [9]: 0.899 nM; koff [9]: 0.00015 s⁻¹; kon [9]: 167000 M⁻¹ s⁻¹; Kd [10]: 0.953 nM; koff [10]: 0.000161 s⁻¹; kon [10]: 169000 M⁻¹ s⁻¹; CDC EC50, HEK293/IL1RAP target cells, experiment 1 [8]: 5.13 nM; CDC EC50, HEK293/IL1RAP target cells, experiment 2 [8]: 4.7 nM

B3: murine mAb001 (antibody, V domains shown)
VH: QVQLQQPGAELVRPGSSVKLSCKASGYTFTSYWMDWVKQRPGQGLEWIGNIYPSDSKTHYNQKFKDKATLTVDKSSSTAYMQLSSLTSEDSAVYYCARDYYGSIGMDYWGQGTSVTVSS
VL: DIQMTQSPSSLSASLGERVSLTCRASQEISGYLSWLQQKPDGTIKRLIYAASTLDSGVPKRFSGSRSGSDYSLTISSLESEDFADYYCLQYASYPWTFGGGTKLEIK
notes: Murine anti-human IL1RAP mAb
Question: B3 was tested. Which Kd [11] did it give?
Answer: 4.97 nM

Question: And the koff [11]?
Answer: 0.000282 s⁻¹

Question: And the kon [11]?
Answer: 56700 M⁻¹ s⁻¹

B4: murine mAb048 (antibody, V domains shown)
VH: QVQLQQPGADLVKPGASVKLSCKAYGYTFFSYWMHWVRQRPGQGLEWIGMIHPNSGTTNNNEKFKSKATLTVDKSFSTAYMQLSSLTSEDSAVYYCARGYSNYDFDYWGQGTILTVSS
VL: DIKMTQFPSSMYASLGERVTITCKASQDINTYLIWIQQKPGKSPKTLIYRANRLADGVPSRFSGSGSGQDSSLTISSLEHEDMGIYYCLQYDEFPYTFGGGTKLEIK
notes: Murine anti-human IL1RAP mAb
Question: With B4 as the binder, how does the Kd [11] read?
Answer: 0.357 nM

Question: What about the koff [11] of the same binder?
Answer: 4.48e-05 s⁻¹

Question: What about the kon [11] of the same binder?
Answer: 125000 M⁻¹ s⁻¹

B5: mAb063 (antibody, V domains shown)
VH: EVQLQQSGPELVKPGASVKISCKASGYTFTDYYMNWVKQSHGKSLEWIGHINPNSGSTTYTEKFKDKATLTVDKSSSTAYMELRSLTSDDSAVYYCVRRIGKNWHCDVWGTGTTVTVSS
VL: DIVLTQSPASLAVSLGQRATISCRASESVNFHGTHLMHWYQQKPGQAPKLLIYAASNLDSGVPARFSGSGSETDFTLNIHPVEEEDAATYFCQQSIEDPFTFGSGTYLEIK
notes: Murine anti-human IL1RAP mAb; also called murine mAb063
Question: B5 was tested. Which Kd [11] did it give?
Answer: 0.0496 nM

Question: What about the koff [11] of the same binder?
Answer: 2.12e-05 s⁻¹

Question: What about the kon [11] of the same binder?
Answer: 426000 M⁻¹ s⁻¹

B6: murine mAb067 (antibody, V domains shown)
VH: QVKLHQSGAELAKPGASVKMSCKASGYTFNSYWIHWVKQRPGQGLEWIGYNNPTSGYSEYNQKFTDKATLSADKSSSTAYMQLSSLTSEDSAVYYCVREYGDLFAYWGQGTLVTVSA
VL: NIVMTQSPKSMSMSVGERVTLSCKASENVGYSVSWFQQKPDQSPKLLIYGASNRYTGVPDRFTGSGSATDFTLTISTVQAEDLADYHCGQIYIYPYTFGGGTKLEIK
notes: Murine anti-human IL1RAP mAb
Question: How did the Kd [11] turn out when B6 was run?
Answer: 0.3 nM

Question: And the koff [11]?
Answer: 0.000102 s⁻¹

Question: And the kon [11]?
Answer: 340000 M⁻¹ s⁻¹

B7: murine mAb117 (antibody, V domains shown)
VH: QAYLQQSGAELVRPGASVKMSCKASGYTFTSYNMHWVKQSPRQGLEWVGVFYLGNGDTSYNEKFKGKATLTVDKSSSTAYMQLSSLTSEDSAVYFCARPGGYANWYFDVWGTGTTVTVSS
VL: DIVMTQSQKFMSTSVGDWVSVTCKASQNVGTEVSWYQQKPGQSPNTLIYSASYRHSGVPDRFTGSGSGTEFTLTITNVQSEDLADYFCQQYNSFPLTFGAGTKLDLK
notes: Murine anti-human IL1RAP mAb
Question: For B7, which Kd [11] is on record?
Answer: 0.193 nM

Question: And the koff [11]?
Answer: 4.28e-05 s⁻¹

Question: And the kon [11]?
Answer: 222000 M⁻¹ s⁻¹
